According to US20020146797:

System: RR-Src peptide

Substance | KM (mM) for protein substrate RR-Src, ATP saturated [mM] | KM (mM) for protein substrate RR-Src, N^6-(cyclopentyl)ATP saturated [mM]
GST-XD4(V323A, I338A) | 3.1 | 2.1
GST-XD4 (glutathione S-transferase fusion of the XD4 fragment of v-Src, wild-type catalytic domain) | 2.6 | 
